The text below walks through data of the nanobody polyreactivity screen of Harvey et al. (2022).

The nature of the series: yeast display, Sf9 membrane polyspecificity reagent, FACS + sequencing; frameworks hold sequencing errors. The method in brief:
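Sorting gates, low and high (top ~1%), were placed on anti-HA fluorescence to track expression and on streptavidin fluorescence to track reagent binding. A clone's polyreactivity label is taken from the gate it came out of. The reagent was 10% biotinylated, detergent-solubilized Sf9 membrane, applied for 1 hour at 4 °C to galactose-induced yeast display cells.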
With “QVQLVESGGGLVQAGGSLRLSCAASGSIFYRYAMGWYRQAPGKERELVAAISSGSSTHYADSVKGRFTISRDNAKNTVYLQMNSLKPEDTAVYYCAARYRAFTSTRRFDYWGQGTQVTVSS”, the “polyreactivity (PSR sort gate)” value is on record as “high polyreactivity”. Next, “QVQLVESGGGLVQAGGSLRLICAASGFIFGKYVMGWYRQAAGKERELVAAITSSGGRTYYADSVKGRFTISRDNAKNTVYLQMNSLKPEDTGVYYCAARYVSYWPWFEYDYWGQGTQVTVSS”: “high polyreactivity”. The same measure for “QVQLVESGGGLVQAGGSLRLSCAASGSISLVYAMGWYRQATGKERELVAVINHADDTSYADSVKGRFTISRDNAKNTVYLQMNSLKPEDTADYYCAAESSYFVALTQFYTVEFYYWGQGTQLTVSS”: “low polyreactivity”; for “QVQLVESGGGLVQAGGSLRLSCAASGRIFQRNVMGWYRQAPGKERELVASITGGGTTNYADSVKGRFTISRDNAKNTVYLQMNSLKPEDTAVYYCAKGYGASNDPGYVRKRYGYWGQGTQVTVSS”: “low polyreactivity”; for “QVQLVESGGGLVQAGGSLRLSCAASGFTFPSYPMGWYRQAPGKETELVAVISWGGTSTYYADSVKGRFTISRDNAKNTVYLQMNSLKPEDTAVYYCNRPSRYASTSRGYGYWGQGTQVTVSS”: “high polyreactivity”.

Regarding “QVQLVESGGGLVQAGGSLRLSCAASGRIFGRYVMGWYRQAPGKERELVAAITSGGSTYYADSVKGRFTISRDNAKNTVYLQMNSLKPEDTAVYYCATRLFYPRFYYWGQGTQVTVSS”, the “polyreactivity (PSR sort gate)” value is “high polyreactivity”. The same measure for “QVQLVESVGGLVQAGGSLRLSCAASGSTIDGYAMGWYRQAPGKEREFVAAISFSSASTYYADSVKGRFTISRDNAKNTVYLQMNSLKPEDTAVYYCNADFFDSGGSIEYDSWGQGTQVTVSS”: “low polyreactivity”; for “QVQLVESGGGLVQAGGSLRLSCAASGRIFYPYAMGWYRQAPGKERELVARITWTTTSTYYADSVKGRFTISRDNAKNTVYLQMNSLKPDDTAVYYCAADGRVRTWGNLRDYWGQGTQVTVSS”: “high polyreactivity”; for “QVQLVESGGGLVQAGGSLRLSCAASGRTFGKYTMGWYRQAPGKERELVAAINRRGGSTYYADSVKGRFTISRDNAKNTVYLQMNSLKPEDTAVYYCAKDGYSIDRYYWGQGTQVTVSS”: “high polyreactivity”. The same measure for “QVQLVESGGGLVQAGGSLRLSCAASGSIFWPYAKGWYRQAPGKERELVAAISSSGTSTYYADSVKGRFTISRDNAKNTVYLQMNSLKPEDTAVYYCAKELFTYPYEYWGQGTQVTVSS”: “low polyreactivity”; for “QVQLVESGGGLVQAGGSLRLSCAASGSTFDLNAMGWYRQAPGKERELVARISSVGSTNYADSVKGRFTISRDNAKNTVYLQMNSLKPEDTAVYYCNAGFWDLYDYWGQGTQVTVSS”: “low polyreactivity”. Take “QVQLVESGGGLVQAGGSLRLSCAASGRTSLRYSMGWYRQAPGKERELVAAITSSGATTYYADSVKGRFTISRDNAKNTVYLQMNSLKPEDTAVYYCAAVYSAKRGSGGFGYWGQGTQVTVSS”: the “polyreactivity (PSR sort gate)” value is “high polyreactivity”.

As for “QVQLVESGGGLVQAVGSLRLSCAASGRTSPRNAMGWYRQAPGKERELVAAINRTGGTTYYSDSVKGRFTISRDNAKNTVYLQMNSLIPEDTAVYYCAADVWVSTSGDWFRYDYWGQGTQVTVSS”, the “polyreactivity (PSR sort gate)” value is “high polyreactivity”. Next, “QVQLGESGGGLVQAGGSLRLSCAASGSIFGSYAMGWYRQATGKERELVAAISYSGGTTYYADSVKGRFTNSRDNAKNTVYLQMNSLKPEDTAVYYCNAPVAYEREYEYWGQGTQVTVSS”: “low polyreactivity”; “QVQLVESGGGLVQAGGSLRLSCAASGITFDSNAMGWYRQAPGKERELVAVISSSGGSTNYADSVKGRFTISRDNAKNTVYLQMKSLKPEDTAVYYCAADYRFYYTRWEYSFNYWGQGTQVTVSS”: “high polyreactivity”. The same measure for “QVQLVESGGGLVQAGGSLSLSCAASGSTFYSNAMGWYRQAPGKERELVAAISIGGSTYYADSVKGRFTISRDNAKNTVYLQMNSLKPEDTAVYYCAVDYRHSSSWNAGRWEMYYWGQGTQVTVSS”: “low polyreactivity”; for “QVQLVESGGGLVQAGGSLRLSCAASGFTFAKYAMGWYRQAPGKERELVAAITNSGCRTYYEDSVKGRFTISRDNAKNTVYLQMNSPKPEDTAVYYCATEQLGGSIYDYWGQGTQVTVSS”: “high polyreactivity”; for “QVQLVESVGGLVQAGGSLRLSCAASGFIFYRYAMGWYRKAPGKEWEFVAAINYSATSTYYADSVKGRFTISRDNAKNTVYLQMNSLKPEDTAVYYCAAKRVRRLSYETKYDYWGQGTQVTVSS”: “high polyreactivity”. On to “QVQLVESGGGLVQAGGSLRLSCAASGNIFRRYAMGWYRQAPGKDRELVAAISISGGNTYYADSVKGRFTISRDNAKNTVYLQMNSLKREDTAVYYCNARLRWYPGYDYWGQGTQVTVSS”, for which the “polyreactivity (PSR sort gate)” value is on record as “high polyreactivity”. Next, “QVQLVESGGGLVQAGGSLRLSCAASGRIFNYNAMGWYRQAPGKERELVAVITSGDSTNYADSVKGRFTISRDNAKNTVYLQMNSLKPEDTEVYYCAAEYYSIRYGPHSIEVYGMDYWGQGTQVTVSS”: “low polyreactivity”; “QVQLVESGGGLVQAGGSLRLSCAASASTFWFNVMGWYRQATGKETELDAVITWTGGSTSYADSVKGRFTISRDNAKNTVYLQMNSLKPEDTAVYYCATPVKFGGVPYRYGYWGQGTQVTVSS”: “low polyreactivity”. The same measure for “QVQLVESGGGLVQAGGSLRLSCAASGSIFIYYAMGWYRQAPGKERELVARITGGGSTYYADSVKGRFTISRDNAKNTVYLQMNSLKPEDTAVYYCAKRGYHFLTKYDYWGQGTQVTVSS”: “low polyreactivity”. The same measure for “QVQLVESGGGLVQAGGSLRLSCAASGSIFYQYAMGWYRQAPGTERELVAAITWIGSPNYADSVKGRFTISRDNAKNTVYLQMNSLKPEDTAVYYCNTDPYVLQKYDYWGQGTQVTVSS”: “low polyreactivity”. Regarding “QVQLVESGGGLVQAGGRLRLSCAASGFTFWRNAMGWYRQAPGKERELVAAISRRGGNTYYADSVKGRFTISRDNAKNCVYLQMNSLKPEDTAVYYCAADYSYYYGYDYWGQGTQVTVSS”, the “polyreactivity (PSR sort gate)” value was “high polyreactivity”.

With “QVQLLESGGGLVQAGGSLRLSCAASGFTFLQYAMGWYRQAPGKERELVAAISWSGSRTYYADSVKGRFTISRDNAKNTVYLQMNSLKPEETAVYYCAAVYGGLTLTRNYYWGQGTQVTVSS”, the “polyreactivity (PSR sort gate)” value is reported as “high polyreactivity”. With “QVQLVESGGGLVQAGGSLRLSCAASGRIFTYYAMGWYRQAPGKERELVAAISRRGGSTYYADSVKGRFTISRDNAKNTVYLQMNSLKPEDTAVYYCNAPTKAGGSHYWGQGTQVTVSS”, the “polyreactivity (PSR sort gate)” value is given as “high polyreactivity”. Next, “QVQLVESGGGLVQAGGSLRFSCAASGITIRFYAMGWYRQAPGKERELVAAITRGGSTTYAHSVKGRFTISRDNAKNTVYLQMNSLKPEDTEVSYCNAQYQSGYYTSYPDRFDTWGQGTQVTVSS”: “low polyreactivity”; “QVQLLESGGGLVPAGGSLRLSCAASGYIFHRYAMGWSRQAPGKERELVAAITWTGARTYYADSVKGRFTISRDNAKNTVYLQMNSLKPEDTAVYYAGPASYSFAKSGYWGQGTQVTVSS”: “high polyreactivity”. As for “QVQHVESGGGLVQAGGSLRLSCAASGRTIIKYAMGWYRQAPGKERELVAAISRSAGSTYYADSVKGRFTISRDNAKNTVYLQMNSLKPEDTAVYYCNAVTSSYLRFDYWGQGTQVTVSS”, the “polyreactivity (PSR sort gate)” value is on record as “high polyreactivity”. Consider “QVQLVESGGGLVQAGGSLRLSCAASGSIFKSNGMGWNRQAPGKERELVAAITGSGGTTYYADSVKGRFTISRDYAKNTVYLQMNSLKPEDTAVYYCAAVNYYWGQGTQVTVSS”, for which the “polyreactivity (PSR sort gate)” value is listed as “low polyreactivity”.
